Assay: soluble on expression in E. coli; label from the status in PepcDB or PDB records

Sequence	soluble on expression in E. coli
MKKRLSILIAGLASLSVNAATEPWASPEAEVLSRAQIQQVQGKQTYTYVRCWYRPAATHDDPYTTWEWAKNADGSYYTIQGYWWSSIRQKNMFYTTVQPETLLERCEETLGVNHDFADITYFAADHRFSYNHTIWSNDPEVQSNRISKVIAFGDSLSDTGNIFNASQWRFPNPDSWFLGHFSNGFVWTEYLAQGLNVPLYNWAVGGAAGRNQYVALTGVYEQVSSYLSYMRLAKNYQPENSLFTLEFGLNDFMNYNRSLADVKADYSSALIRLIDAGAKNLVLMTLPDATRAPQFQYATQEQIDTVRSKIIGMNAFIREQARYYQMQGIRIVLFDAYTLFDSITTQPEQHGFANANSPCLDIRRNSAADYLLSHSLSAECAKQGSDRFVFWEVTHPTTAIHHYLAEQILATEMAQFPL	not soluble
METKPSQGLYPLHRCKTIHLVRHAQGIHNVEGEKNHKAYLSEDLFDAHLTPLGWQQVDNLHKHVNASGISNRIELVVVSPLLRTLQTAVGTFGGEGYKDGVNTPLLMTAGAGNSDRPAISRLNRPPFIAVESCREHLGVHPCDRRSNITKYRELFPAIDFSLIETDEDVLWKPDIREEDKDIATRGVKFFNWLSTRKEKEIAVVTHSGFLYQTLNSFGNDCDPSVKNEISKKFVNCELRSFVLVDKCMSSSDPPMTNYPGTILTGEDASSDIADQK	soluble
MGSDKIHHHHHHMSPDVYLQIFETRRPQLLRLAYRMLGSHAEAEDVVQEAWIRWQAADQAQIAIPAAWLNRVVSRLCLDLMRSARHRRESYIGPWLPEPLIEEEDADHRPDNLTLSLMMALERLSPLERAAFLLHDVFGQSFDEVALALDRSPSAARQLAVRARAHVHIDRPRYKVEREAAEGLTRAFFEACKTGDAAVLSGLLAEDAVLHSDGGGKVYNLLNVIVGAQKLLRMFTSLSRKRGDEMEFVQFTLIDALPGYVWRMGDQIQTTALEVEDGRITRVYTTRNPDKLTRIRLN	not soluble
AGDIAIIGLAGRYPKAANIHEFWNNLKEGKDCVSEIPESRWDWQRLEGITSPSGKDISKWGGFIDDPDCFDPQFFRITPREAETMDPQERLFLETCWETIEDAGYTPKTLAKPKGRNKRQHVGVFAGVMHKDYTLVGAEEASAENVFPLSLNYAQIANRVSYFCNFHGPSMAVDTVCSSSLTAVHLALESIRHGECDVALAGGVNLSLHPNKYMTYGVWDMFSTDGHCRTFGKDGDGYVPAEGIGAVLLKPLRQAEEDGDRIYAVIKGSAVNHVGTVSGISVPSPVSQADLIETCLEKTGIDPRTISYVEAHGTGTSLGDPIEIQGLVKAFRQYTQDRQFCSIGSVKSNIGHAESAAGISGLSKVALQLHHQKLVPSLHSEELNPYVDFEKSPFYVQHETETWKQPVIKENGEDVPYPRRAGISSFGATGSNAHIILEEH	soluble
MSLTSSQKDIINDILSAMQCYPENEAFIIDDKHYTYAQLGEITASITHSLSEIKDEKIGIVAENRIETYAAILAVLAGGKTYVILHPAYPEERNLKIAALAGLRTLLCTSDTDRSAFGTGHFRIIDTDRLPGKAQSEQQSHSSNEERNAYIIFTSGSTGEPKGVPITRANLNAFYRAYSLLDWNLDEHDRMLQMFELTFDVSVVSLLYPLTLGAAVYTVGHQDVKHFKVFELLEKYQLTFATVTPSLLQLLSPYFDEINLPSLKYLGVSAEASQTELLERFRKSVPNATFINLYGPTEATIYCTCYRIPASDKCKHYNGMVAIGKPFPGIRAIIADEEGNELPQGETGELWVSGRQVMKGYLDDPEKSALVLIHRPDGQIYYRTGDLCILDSDGDIIYCGRKDYQVKIQGFRIELSEIEYTAQSFFKTPCSVAAVPLLCDGICNELHLAVETTECTQSALIEYLKEKLPKYMLPKQIHCISQFPVTNSNKTDRKKIAELIKEGHHHHHH	soluble
MPETEEISKGLEDVNIKWTRLTTIDGNKGILRYGGYSVEDIIASGAQDEEIQYLFLYGNLPTEQELRKYKETVQKGYKIPDFVINAIRQLPRESDAVAMQMAAVAAMAASETKFKWNKDTDRDVAAEMIGRMSAITVNVYRHIMNMPAELPKPSDSYAESFLNAAFGRKATKEEIDAMNTALILYTDHEVPASTTAGLVAVSTLSDMYSGITAALAALKGPLHGGAAEAAIAQFDEIKDPAMVEKWFNDNIINGKKRLMGFGHRVYKTYDPRAKIFKGIAEKLSSKKPEVHKVYEIATKLEDFGIKAFGSKGIYPNTDYFSGIVYMSIGFPLRNNIYTALFALSRVTGWQAHFIEYVEEQQRLIRPRAVYVGPAERKYVPIAERK	soluble
MASEVQAERADVVIVGAGHGGAQAAIALRQNGFEGRVLVIGREPEIPYERPPLSKEYLAREKTFERICIRPAQFWEDKAVEMKLGAEVVSLDPAAHTVKLGDGSAIEYGKLIWATGGDPRRLSCVGADLAGVHAVRTKEDADRLMAELDAGAKNAVVIGGGYIGLEAAAVLTKFGVNVTLLEALPRVLARVAGEALSEFYQAEHRAHGVDLRTGAAMDCIEGDGTKVTGVRMQDGSVIPADIVIVGIGIVPCVGALISAGASGGNGVDVDEFCRTSLTDVYAIGDCAAHANDFADGAVIRLESVQNANDMATAAAKDICGAPVPYKATPWFWSNQYDLKLQTVGLSTGHDNAVLRGDPATRSFSVVYLKGGKVVALDCVNMVKDYVQGKKLVEARAQIAPEQLADAGVPLKEMLA	soluble
MAESDWDTVTVLRKKGPTAAQAKSKQAILAAQRRGEDVETSKKWAAGQNKQHSITKNTAKLDRETEELHHDRVTLEVGKVIQRGRQSKGLTQKDLATKINEKPQVIADYESGRAIPNNQVLGKIERAIGLKLRGKDIGKPIEKGPKAK	soluble
MTAPLPLDWTFPYVSQRMPALGENMVCTEQPLANQAAMRMLAAGGNAVDAAIAAAITMTVVGPCMNGIGGDLFAIIWDGRQLHGLNASGRAPQAWTREYFSRHDAMPARGWDAVTVPGAVSGWVALSRKFGKLDFARLFEPALHYARHGFLVTPITARQWADQAEPIMQGPGFRDAFAPNGRTPQPGERFICPGQADTLQDIADTHGESFYRGALAARIAAFARETGGALTKADLAAHQADWVDPIGAQYGELTLHEIGPSGQGIGALMALGMLDGLSGKLGQPDSTDFYHYQIEAMKLAFADINRYVADPASMREVSAEMLLDRAYLATRAGAIDPAEARYPGPGKPHNGGTTYLTAADADGMMVSLIQSNFKGFGSGVVVPGTGIALHNRGWGFNLIEGHPNEVGPGKRPFHTIIPGFLMRDGEPLMSFGVMGGSLQAQGHVQVTVRTAAGQNPQAIVDAPRWRILEDNRTVMVEWNFPDAAVAGLRERGHAVTVAPRFSDEFGGSQAIMRIEGGYLGASDHRKDGQASALLEHHHHHH	not soluble
MDNVVDRHVFYISDGTAITAEVLGHAVMSQFPVTISSITLPFVENESRARAVKDQIDAIYQQTGVRPLVFYSIVLPEIRAIILQSEGFCQDIVQALVAPLQQEMKLDPTPIAHRTHGLNPGNLNKYDARIAAIDYTLAHDDGISLRNLDQAQVILLGVSRCGKTPTSLYLAMQFGIRAANYPFIADDMDNLTLPTSLKPLQHKLFGLTIDPERLAAIREERRENSRYASLRQCRMEVAEVEALYRKNQIPCLNSTNYSVEEIATKILDIMGLNRRMYLEHHHHHH	soluble
MWRSSLMCLPDTSWGAMETTFVLDALEQALWARRPSGTVHHSDKGSQYVSLAYTQRLKEAGLLASTGSTGDSYDNAMAESINGLYKAEVIHRKSWKNRAEVELATLTWVDWYNNRRLLERLGHTPPAEAEKAYYASIGNDDLAA	not soluble
MMLITTSHRPTRRTRSFGHDLERVFPNSLYLTRGKKTIQELLMEAYDRGYERLLILNVWKGNPLKMTFIKVHPEDWGYLGYLYLHGIKLQREMGFKGLNPIREDMPLVVTTAKRVGWDHIAFAQVFAELTTGKFVPRGDKSLTYIADKYDTDVIAVIERHPRGMVINFYRLDVTKDRPVGPLINVKIWIMEDGRRWDYKEALGIKVPRREKGEGQESSSENRDLEHHHHHH	soluble
VANITFSSPVMAKDVTVYAVAGDRGTILAVAKSHSIPIPFDCQDGECGSCLVQVEHFNPKAKAAVALTEKEKEVLRQLGKITKEEIVDAEVNDIPPRYRLACQCFVRNEDILVKFEGDKTKPQRLAVTPAAAHYKGGMEINTPQEFFSYAAKVEEDAALHYDSLAKAMADAGNAPVAKLFAQLAEFSRLHLAEVKSRAGSIDLSKSVPPDYAWPDHATPERAAVWASDTTLTRLGALKAALQGERRGYEFYRAVEATTKSSEVAAAAKEFVNEEAEHVRILEAWITQEEWSLKHAAKAAENA	not soluble
MSELTKAQQYNFNKLQKKIRRNTGNAIADYNMIEDGDRIMVCLSGGKDSFTMLDILMSLKKSAPISFDLIAVNLDQKQPGFPAHILPEYLEKLGVEYKIVEEDTYSIVQDKIPEGKTTCSLCSRLRRGILYRTAKELGATKIALGHHRDDILETMFLNMFYGGKLKGMPPKLVSDNGEHVVIRPLAYCREKDIIKYADMRDYPIIPCNLCGSQPNMQRQNVKQMLNTWDKQFPGRIETMFTAMQNVVPSHLADFNTFDFKSINRDSGVINGGDIGFDKEEMPTLPVDADDAVAEFDPSLKLDVVNVD	not soluble
MSLKKPALKYCGIRSLKDLQLAAESQADYLGFIFAESKRKVSPEDVKKWLNQVRVEKQVAGVFVNESIETMSRIAKSLKLDVIQLHGDEKPADVAALRKLTGCEIWKALHHQDNTTQEIARFKDNVDGFVIDSSVKGSRGGTGVAFSWDCVPEYQQAAIGKRCFIAGGVNPDSITRLLKWQPEGIDLASGIEKNGQKDQNLMRLLEERMNRYVSISEEGHHHHHH	soluble
THALEPSKPLAHDEKPITIEVVSMDWKWFFIYPEQGIATVNEIAFPANTPVYFKVTSNSVMHSFFIPRLGSQIYAMAGMQTRLHLIANEPGTYDGICAEICGPGHSGMKFKAIATPDRAAFDQWVAKAKQSPNTMSDMAAFEKLAAPSEYNQVEYFSNVKPDLFADVINKFMAHGKSMDMTQPEGEHSAHEGMEGMDMSHAESAH	soluble
MHYDAIVVGGGMVGAAAALGLAQRGFQVAVIEQEMPTPFDATSPPDLRISAIGYASVALLKELDAWPRVQQMRSAPYRRLETWEWANARVVFDAADIHLPELGFMVENRVLQLALWESLQEEERCRCYCPATPQGLQRTDDGWCLQLADGQKLTASLVIGADGANSQVRQWAGIGISGWQYRQSCMLIGVETSQPQQDVTWQQFTPSGPRAFLPLFDQWGSLVWYDSPQRIRQLQAMPLAQLDKEIAAAFPERLGTVKVISAGSFPLVRRHAQTYIKPGLVLLGDAAHTINPLAGQGVNLGYRDVEALLDVLINARNAGEQWASERVLRRYQCRRMPDNLMMQSGMDLFYSAFSNALPPLSFARNMALMVAQRAGVLKQRALKYAIGVLEHHHHHH	soluble
MCEQGVSYYNSQELKCCKLCKPGTYSDHRCDKYSDTICGHCPSDTFTSIYNRSPWCHSCRGPCGTNRVEVTPCTPTTNRICHCDSNSYCLLKASDGNCVTCAPKTKCGRGYGKKGEDEMGNTICKKCRKGTYSKTGHHHHHH	soluble
MSIYSKILVVADINHDEQPALARAMQLAQKSTSVSHITFFLSIYDFSYDMTSMLSLEERDAMRKGVIHQREQWMRSIAEPYLDKSVQFDIKVVWHNRPYEAIIGEIFAGEHDILIKATRKHDMLESVIFTPTDWHLMRKCPTPVLLVKNADWPENANIIASVHVGSELDTHIDLNDRMVEQLLNLSKRLGASPYLVNAYPVTPANITIELPEFDPTTYTDAVRGHHLTAMKALRQKHGLSEEQTLVQQGLPEDVIPEAAKQLNAAMVILGTTGRTGLSAVFIGNTAEHVIDKINCDVLALKPNGYVSPLDPQTAI	not soluble

— the DeepSol protein solubility set
